According to paper PMC4354923, “FTO is necessary for the induction of leptin resistance by high-fat feeding” (Molecular Metabolism, 2015):

Molecular target: Myc-tagged full length FTO (UniProt Q9C0B1 1-505)
Experiment: cell-based or functional assay

Chain of Myc-tagged full length FTO (Q9C0B1 whole entry): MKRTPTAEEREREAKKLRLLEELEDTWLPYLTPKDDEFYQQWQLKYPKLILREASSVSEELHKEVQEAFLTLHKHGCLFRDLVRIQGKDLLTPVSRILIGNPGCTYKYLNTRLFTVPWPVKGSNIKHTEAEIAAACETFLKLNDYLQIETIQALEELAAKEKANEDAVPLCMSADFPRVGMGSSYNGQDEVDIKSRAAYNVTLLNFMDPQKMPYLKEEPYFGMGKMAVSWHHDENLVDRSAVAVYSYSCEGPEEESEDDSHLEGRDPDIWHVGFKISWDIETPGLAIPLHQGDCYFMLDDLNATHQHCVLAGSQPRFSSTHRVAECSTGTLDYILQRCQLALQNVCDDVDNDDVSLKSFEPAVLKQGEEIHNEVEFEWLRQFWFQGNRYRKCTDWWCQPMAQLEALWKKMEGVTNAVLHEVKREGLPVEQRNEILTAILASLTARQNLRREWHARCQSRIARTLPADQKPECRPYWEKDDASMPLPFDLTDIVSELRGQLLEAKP

B1: Thyroid receptor interacting protein 4 (TRIP4), in HEK293 cell extract (natural protein, human (endogenous in HEK293), UniProt Q15650 1-581, looked up)
chain: MAVAGAVSGEPLVHWCTQQLRKTFGLDVSEEIIQYVLSIESAEEIREYVTDLLQGNEGKKGQFIEELITKWQKNDQELISDPLQQCFKKDEILDGQKSGDHLKRGRKKGRNRQEVPAFTEPDTTAEVKTPFDLAKAQENSNSVKKKTKFVNLYTREGQDRLAVLLPGRHPCDCLGQKHKLINNCLICGRIVCEQEGSGPCLFCGTLVCTHEEQDILQRDSNKSQKLLKKLMSGVENSGKVDISTKDLLPHQELRIKSGLEKAIKHKDKLLEFDRTSIRRTQVIDDESDYFASDSNQWLSKLERETLQKREEELRELRHASRLSKKVTIDFAGRKILEEENSLAEYHSRLDETIQAIANGTLNQPLTKLDRSSEEPLGVLVNPNMYQSPPQWVDHTGAASQKKAFRSSGFGLEFNSFQHQLRIQDQEFQEGFDGGWCLSVHQPWASLLVRGIKRVEGRSWYTPHRGRLWIAATAKKPSPQEVSELQATYRLLRGKDVEFPNDYPSGCLLGCVDLIDCLSQKQFKEQFPDISQESDSPFVFICKNPQEMVVKFPIKGNPKIWKLDSKIHQGAKKGLMKQNKAV
- NFκB-responsive firefly luciferase reporter (normalised to renilla) in Fto null MEFs co-transfected with a TRIP4 expression construct and Myc-tagged full length FTO: ≤ 5 fold
